Experimental data as given in patent publication US20220025021A1 (BETH ISRAEL DEACONESS MEDICAL CENTER, published 2022).

Tests used:
Assay in all cases: cell-based or functional assay
[1] = target: HIV-1 envelope glycoprotein of pseudovirus RHPA4259.7 (HIV-1)
[2] = target: HIV-1 envelope glycoprotein of pseudovirus SC422661.8 (HIV-1)
[3] = target: HIV-1 envelope glycoprotein of pseudovirus BB1012-11.TC21 (HIV-1)
[4] = target: HIV-1 envelope glycoprotein of pseudovirus CNE52 (HIV-1)
[5] = target: HIV-1 envelope glycoprotein of pseudovirus DU172.17 (HIV-1)
[6] = target: HIV-1 envelope glycoprotein of pseudovirus 0260.v5.c36 (HIV-1)

B1: MS-95 (antibody)
VH: not shown
VL: DIVLTQSPHSLSVTPGESASISCKSSHSLIHGDRNNYLAWYVQKPGRSPQLLIYLASSRASGVPDRFSGSGSGKDFTLKISRVETEDVGTYYCMQGRESPWTFGQGTKVDIKRTVAAPSVFIFPPSDEQLKSGTASVVCLLNNFYPREAKVQWKVDNALQSGNSQESVTEQDSKDSTYSLSSTLTLSKADYEKHKVYACEVTHQGLSSPVTKSFNRGEC
- IC50 (neutralization in TZM.bl cells) [1]: 0.208 µg/mL
- IC80 (neutralization in TZM.bl cells) [1]: 0.69 µg/mL
- IC50 (neutralization in TZM.bl cells) [2]: 0.433 µg/mL
- IC80 (neutralization in TZM.bl cells) [2]: 2.88 µg/mL
- IC50 (neutralization in TZM.bl cells) [3]: 0.044 µg/mL
- IC80 (neutralization in TZM.bl cells) [3]: 0.117 µg/mL
- IC50 (neutralization in TZM.bl cells) [4]: 0.567 µg/mL
- IC80 (neutralization in TZM.bl cells) [4]: 5.05 µg/mL
- IC50 (neutralization in TZM.bl cells) [5]: 1.97 µg/mL
- IC80 (neutralization in TZM.bl cells) [5]: 7.07 µg/mL
- IC50 (neutralization in TZM.bl cells) [6]: 0.022 µg/mL
- IC80 (neutralization in TZM.bl cells) [6]: 0.06 µg/mL

B2: MS-97 (antibody)
VH: not shown
VL: DFVLTQSPLSLSVTPGEPASISCKSSHSLIHGDRNNYLAWYVQKPGRSPQLLIYLASSRASGVPDRFSGSGSDKDFTLKISRVETEDVGTYYCMQGRESPWTFGQGTKVDIKRTVAAPSVFIFPPSDEQLKSGTASVVCLLNNFYPREAKVQWKVDNALQSGNSQESVTEQDSKDSTYSLSSTLTLSKADYEKHKVYACEVTHQGLSSPVTKSFNRGEC
- IC50 (neutralization in TZM.bl cells) [1]: 0.183 µg/mL
- IC80 (neutralization in TZM.bl cells) [1]: 0.824 µg/mL
- IC50 (neutralization in TZM.bl cells) [2]: 0.311 µg/mL
- IC80 (neutralization in TZM.bl cells) [2]: 2.09 µg/mL
- IC50 (neutralization in TZM.bl cells) [3]: 0.04 µg/mL
- IC80 (neutralization in TZM.bl cells) [3]: 0.13 µg/mL
- IC50 (neutralization in TZM.bl cells) [4]: 0.214 µg/mL
- IC80 (neutralization in TZM.bl cells) [4]: 1.62 µg/mL
- IC50 (neutralization in TZM.bl cells) [5]: 2.21 µg/mL
- IC80 (neutralization in TZM.bl cells) [5]: 7.54 µg/mL
- IC50 (neutralization in TZM.bl cells) [6]: 0.028 µg/mL
- IC80 (neutralization in TZM.bl cells) [6]: 0.096 µg/mL

B3: MS-100 (antibody)
VH: not shown
VL: DFVLTQSPHSLSVTPGEPASISCKSSHSLIHGDRNNYLAWYVQKPGRSPQLLIYLASSRASGVPDRFSGSGSGKDFTLKISRVETEDVGTYYCMQGRESPWTFGQGTKVDIKRTVAAPSVFIFPPSDEQLKSGTASVVCLLNNFYPREAKVQWKVDNALQSGNSQESVTEQDSKDSTYSLSSTLTLSKADYEKHKVYACEVTHQGLSSPVTKSFNRGEC
- IC50 (neutralization in TZM.bl cells) [1]: 0.142 µg/mL
- IC80 (neutralization in TZM.bl cells) [1]: 0.694 µg/mL
- IC50 (neutralization in TZM.bl cells) [2]: 0.184 µg/mL
- IC80 (neutralization in TZM.bl cells) [2]: 1.31 µg/mL
- IC50 (neutralization in TZM.bl cells) [3]: 0.029 µg/mL
- IC80 (neutralization in TZM.bl cells) [3]: 0.095 µg/mL
- IC50 (neutralization in TZM.bl cells) [4]: 0.147 µg/mL
- IC80 (neutralization in TZM.bl cells) [4]: 2.02 µg/mL
- IC50 (neutralization in TZM.bl cells) [5]: 1.56 µg/mL
- IC80 (neutralization in TZM.bl cells) [5]: 5.25 µg/mL
- IC50 (neutralization in TZM.bl cells) [6]: 0.019 µg/mL
- IC80 (neutralization in TZM.bl cells) [6]: 0.053 µg/mL

B4: MS-99 (antibody)
VH: not shown
VL: DFVLTQSPLSLSVTPGESASISCKSSHSLIHGDRNNYLAWYVQKPGRSPQLLIYLASSRASGVPDRFSGSGSDKDFTLKISRVEAEDVGTYYCMQGRESPWTFGQGTKVDIKRTVAAPSVFIFPPSDEQLKSGTASVVCLLNNFYPREAKVQWKVDNALQSGNSQESVTEQDSKDSTYSLSSTLTLSKADYEKHKVYACEVTHQGLSSPVTKSFNRGEC
- IC50 (neutralization in TZM.bl cells) [1]: 0.257 µg/mL
- IC80 (neutralization in TZM.bl cells) [1]: 0.718 µg/mL
- IC50 (neutralization in TZM.bl cells) [2]: 0.294 µg/mL
- IC80 (neutralization in TZM.bl cells) [2]: 1.46 µg/mL
- IC50 (neutralization in TZM.bl cells) [3]: 0.032 µg/mL
- IC80 (neutralization in TZM.bl cells) [3]: 0.084 µg/mL
- IC50 (neutralization in TZM.bl cells) [4]: 0.219 µg/mL
- IC80 (neutralization in TZM.bl cells) [4]: 1.8 µg/mL
- IC50 (neutralization in TZM.bl cells) [5]: 1.95 µg/mL
- IC80 (neutralization in TZM.bl cells) [5]: 7.14 µg/mL
- IC50 (neutralization in TZM.bl cells) [6]: 0.024 µg/mL
- IC80 (neutralization in TZM.bl cells) [6]: 0.087 µg/mL

B5: MS-96 (antibody)
VH: not shown
VL: DIVLTQSPHSLSVTPGESASISCKSSHSLIHGDRNNYLAWYVQKPGRSPQLLIYLASSRASGVPDRFSGSGSDKDFTLKISRVEAEDVGTYYCMQGRESPWTFGQGTKVDIKRTVAAPSVFIFPPSDEQLKSGTASVVCLLNNFYPREAKVQWKVDNALQSGNSQESVTEQDSKDSTYSLSSTLTLSKADYEKHKVYACEVTHQGLSSPVTKSFNRGEC
- IC50 (neutralization in TZM.bl cells) [1]: 0.252 µg/mL
- IC80 (neutralization in TZM.bl cells) [1]: 1.14 µg/mL
- IC50 (neutralization in TZM.bl cells) [2]: 0.397 µg/mL
- IC80 (neutralization in TZM.bl cells) [2]: 2.82 µg/mL
- IC50 (neutralization in TZM.bl cells) [3]: 0.047 µg/mL
- IC80 (neutralization in TZM.bl cells) [3]: 0.195 µg/mL
- IC50 (neutralization in TZM.bl cells) [4]: 0.543 µg/mL
- IC80 (neutralization in TZM.bl cells) [4]: 5.36 µg/mL
- IC50 (neutralization in TZM.bl cells) [5]: 3.58 µg/mL
- IC80 (neutralization in TZM.bl cells) [5]: 13 µg/mL
- IC50 (neutralization in TZM.bl cells) [6]: 0.026 µg/mL
- IC80 (neutralization in TZM.bl cells) [6]: 0.093 µg/mL

B6: MS-98 (antibody)
VH: not shown
VL: DFVLTQSPLSLSVTPGESASISCKSSHSLIHGDRNNYLAWYVQKPGRSPQLLIYLASSRASGVPDRFSGSGSGKDFTLKISRVETEDVGTYYCMQGRESPWTFGQGTKVDIKRTVAAPSVFIFPPSDEQLKSGTASVVCLLNNFYPREAKVQWKVDNALQSGNSQESVTEQDSKDSTYSLSSTLTLSKADYEKHKVYACEVTHQGLSSPVTKSFNRGEC
- IC50 (neutralization in TZM.bl cells) [1]: 0.146 µg/mL
- IC80 (neutralization in TZM.bl cells) [1]: 0.676 µg/mL
- IC50 (neutralization in TZM.bl cells) [2]: 0.301 µg/mL
- IC80 (neutralization in TZM.bl cells) [2]: 2.14 µg/mL
- IC50 (neutralization in TZM.bl cells) [3]: 0.025 µg/mL
- IC80 (neutralization in TZM.bl cells) [3]: 0.114 µg/mL
- IC50 (neutralization in TZM.bl cells) [4]: 0.237 µg/mL
- IC80 (neutralization in TZM.bl cells) [4]: 1.91 µg/mL
- IC50 (neutralization in TZM.bl cells) [5]: 1.44 µg/mL
- IC80 (neutralization in TZM.bl cells) [5]: 6.33 µg/mL
- IC50 (neutralization in TZM.bl cells) [6]: 0.019 µg/mL
- IC80 (neutralization in TZM.bl cells) [6]: 0.068 µg/mL

B7: MS-101 (antibody)
VH: not shown
VL: DFVLTQSPHSLSVTPGEPASISCKSSHSLIHGDRNNYLAWYVQKPGRSPQLLIYLASSRASGVPDRFSGSGSDKDFTLKISRVEAEDVGTYYCMQGRESPWTFGQGTKVDIKRTVAAPSVFIFPPSDEQLKSGTASVVCLLNNFYPREAKVQWKVDNALQSGNSQESVTEQDSKDSTYSLSSTLTLSKADYEKHKVYACEVTHQGLSSPVTKSFNRGEC
- IC50 (neutralization in TZM.bl cells) [1]: 0.227 µg/mL
- IC80 (neutralization in TZM.bl cells) [1]: 0.816 µg/mL
- IC50 (neutralization in TZM.bl cells) [2]: 0.251 µg/mL
- IC80 (neutralization in TZM.bl cells) [2]: 1.88 µg/mL
- IC50 (neutralization in TZM.bl cells) [3]: 0.037 µg/mL
- IC80 (neutralization in TZM.bl cells) [3]: 0.121 µg/mL
- IC50 (neutralization in TZM.bl cells) [4]: 0.145 µg/mL
- IC80 (neutralization in TZM.bl cells) [4]: 1.23 µg/mL
- IC50 (neutralization in TZM.bl cells) [5]: 2.41 µg/mL
- IC80 (neutralization in TZM.bl cells) [5]: 6.88 µg/mL
- IC50 (neutralization in TZM.bl cells) [6]: 0.025 µg/mL
- IC80 (neutralization in TZM.bl cells) [6]: 0.069 µg/mL
